Among the data in article PMC4915166 are extracellular superoxide released by mouse microglia (SOD-inhibitable WST-1 reduction), 1.0 μM peptide, increase over the BSA control (% increase compared to the BSA control) values, retold here.

This assay deals with gp91^phox, the catalytic subunit of NADPH oxidase (Nox2) (mouse (endogenous in mouse microglia)) (UniProt Q61093).
gp91^phox, the catalytic subunit of NADPH oxidase (Nox2) (mouse (endogenous in mouse microglia)), sequence (Q61093 whole entry): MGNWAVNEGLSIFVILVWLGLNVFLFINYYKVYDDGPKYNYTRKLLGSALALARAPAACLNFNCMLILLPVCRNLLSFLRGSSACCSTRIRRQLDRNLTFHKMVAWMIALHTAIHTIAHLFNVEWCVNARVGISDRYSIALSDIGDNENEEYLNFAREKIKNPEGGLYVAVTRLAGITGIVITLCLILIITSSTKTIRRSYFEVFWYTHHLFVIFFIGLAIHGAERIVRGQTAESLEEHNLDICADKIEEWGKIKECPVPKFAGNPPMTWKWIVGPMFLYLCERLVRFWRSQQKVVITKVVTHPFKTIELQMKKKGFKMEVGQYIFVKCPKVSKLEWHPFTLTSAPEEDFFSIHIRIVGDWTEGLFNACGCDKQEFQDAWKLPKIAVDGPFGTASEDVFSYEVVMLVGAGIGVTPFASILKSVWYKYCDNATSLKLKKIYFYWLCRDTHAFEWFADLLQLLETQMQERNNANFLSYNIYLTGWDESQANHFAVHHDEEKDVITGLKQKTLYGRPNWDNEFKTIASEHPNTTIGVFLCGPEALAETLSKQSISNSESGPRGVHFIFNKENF

Regarding “A29-V40 α-Syn peptide (WT, unlabeled, purity >98 %) (from UniProt P37840 29-40)”, the extracellular superoxide released by mouse microglia (SOD-inhibitable WST-1 reduction), 1.0 μM peptide, increase over the BSA control (% increase compared to the BSA control) was found to be 129.
